How the values were obtained:
mCherry-PARP1 [1] = target: T1, mCherry-PARP1 (Homo sapiens, UniProt P09874 1-1014); assay: condensation, fluorescence microscopy; 4 µM protein; lost at high salt; reentrant at high DNA; Condensation (DIC, PARP1 truncations): 20 mM Tris pH 7.5, 50 mM NaCl, 7.5 mM MgCl2, 1 mM DTT; DNA curtains: 25-150 mM NaCl tested; temperature not stated; conditions: protein: recombinant; tags: mCherry (pET-SUMO-mCherry-PARP1); label: Cy5 at 5' of S10 (labelled version, 10% where stated); three annealed oligos, central nick, blunt ends
T1 sequence (P09874 whole entry, the tested form may be a part): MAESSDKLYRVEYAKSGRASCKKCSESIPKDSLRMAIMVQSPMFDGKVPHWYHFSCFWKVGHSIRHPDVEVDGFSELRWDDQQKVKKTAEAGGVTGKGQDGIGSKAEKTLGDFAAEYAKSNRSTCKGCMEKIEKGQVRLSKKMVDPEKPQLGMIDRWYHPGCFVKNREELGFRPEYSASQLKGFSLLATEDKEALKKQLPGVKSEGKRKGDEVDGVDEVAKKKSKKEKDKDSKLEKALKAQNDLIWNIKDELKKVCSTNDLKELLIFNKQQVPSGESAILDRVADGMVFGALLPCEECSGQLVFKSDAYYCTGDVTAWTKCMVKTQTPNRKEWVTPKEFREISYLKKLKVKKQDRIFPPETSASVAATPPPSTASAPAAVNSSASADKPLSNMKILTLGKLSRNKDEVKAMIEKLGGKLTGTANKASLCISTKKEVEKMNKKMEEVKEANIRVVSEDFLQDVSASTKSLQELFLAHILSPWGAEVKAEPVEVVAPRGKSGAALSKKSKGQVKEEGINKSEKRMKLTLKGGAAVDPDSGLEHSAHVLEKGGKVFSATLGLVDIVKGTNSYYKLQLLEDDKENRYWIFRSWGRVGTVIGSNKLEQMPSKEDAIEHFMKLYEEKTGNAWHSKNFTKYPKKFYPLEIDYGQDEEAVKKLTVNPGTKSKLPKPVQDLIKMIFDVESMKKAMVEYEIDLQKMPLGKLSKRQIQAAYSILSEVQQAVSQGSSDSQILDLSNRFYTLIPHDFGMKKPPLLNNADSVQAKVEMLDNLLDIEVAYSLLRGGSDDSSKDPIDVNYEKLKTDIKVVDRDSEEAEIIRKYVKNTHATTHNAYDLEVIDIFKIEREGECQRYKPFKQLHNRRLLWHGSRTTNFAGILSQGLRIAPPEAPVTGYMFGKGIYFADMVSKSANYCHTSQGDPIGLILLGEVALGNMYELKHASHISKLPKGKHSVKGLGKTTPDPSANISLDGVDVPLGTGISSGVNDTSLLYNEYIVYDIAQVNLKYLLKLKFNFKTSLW

mCherry-PARP1 [2] = target: T1, mCherry-PARP1; assay: condensation, fluorescence microscopy; 4 µM protein; Condensation (DIC, PARP1 truncations): 20 mM Tris pH 7.5, 50 mM NaCl, 7.5 mM MgCl2, 1 mM DTT; DNA curtains: 25-150 mM NaCl tested; temperature not stated; conditions: protein: recombinant; tags: mCherry (pET-SUMO-mCherry-PARP1); dumbbell: two hairpins with a single nick
PARP1 = PARP1 (Homo sapiens, UniProt P09874 1-1014); assay: single-molecule oligo capture on lambda DNA; 5 nM PARP1, 20 nM oligo; 98% of oligos dissociate with 500 µM NAD+; Condensation (DIC, PARP1 truncations): 20 mM Tris pH 7.5, 50 mM NaCl, 7.5 mM MgCl2, 1 mM DTT; DNA curtains: 25-150 mM NaCl tested; temperature not stated; conditions: protein: recombinant; tags: none stated after His-SUMO cleavage; label: 3' ATTO647N on S4; blunt
Sequence of PARP1 (P09874 whole entry, the tested form may be a part): as above

B1: triplex DNA (nicked) (dsDNA)
DNA 1: GCTTAGCTTGGAATCGTATCATGTACACTCGTGTGCCGTGTAGACCGTGCC
DNA 2: TGTACATGATACGATTCCAAGCTAAGC
DNA 3: GGCACGGTCTACACGGCACACGAG
modifications: 5'-phosphate on S9
mCherry-PARP1 [1]
  binding result: binds

## GCTGGCTTCGTAAGAAGCCAGCTCGCGGTCAGCTTGCTGACCGCG (structured_DNA, 5'-phosphate) [nicked dumbbell DNA]
mCherry-PARP1 [2]
  binding result: binds

B2: 60 bp DNA-ATTO647N (dsDNA)
DNA 1: ACGAAGTCTTATGGCAAAACCGATGGACTATGTTTCGGGTAGCACCAGAAGTCTATAACA
DNA 2: TGTTATAGACTTCTGGTGCTACCCGAAACATAGTCCATCGGTTTTGCCATAAGACTTCGT
modifications: 5' BioTEG on S3
PARP1
  binding result: binds
